± gives the standard deviation.
Test: protein stability index of a GFP-peptide fusion (GPS, HEK-293T) (PSI 1-6); higher = more stable
[1] = treatment: DMSO, c terminus: a fixed tail appended
[2] = treatment: MLN4924 1 uM, 8 h, c terminus: a fixed tail appended
[3] = treatment: DMSO, c terminus: native
[4] = treatment: MLN4924 1 uM, 8 h, c terminus: native
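Further: 24-mer peptide tiles fused after GFP, lentivirally expressed, FACS-sorted into six equal bins by GFP/DsRed ratio, decoded by Illumina sequencing, PSI is the read-weighted mean bin number.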

Row | Sequence | protein stability index [1] | protein stability index [2] | protein stability index [3] | protein stability index [4]
1 | RLVLPIAYEFNPELVLVSAGFDAA [HDAC6] | 2.3 ± 0.57 | 2.4 ± 0.2 |  | 
2 | MEGLETAEGSNSESSDDDSEEAPS [SDE2] | 5.51 ± 0.2 | 5.51 ± 0.39 |  | 
3 | GSRVISHYAGQDATDPFVAFHINK [FADS1] | 3.33 ± 0.31 | 3.35 ± 0.22 |  | 
4 | IIEELGEQRDQLERTKSRLVNTSE [VTI1B] | 4.57 ± 0.41 | 4.63 ± 0.15 |  | 
5 | LRDPATITTLRVPVLRPMDLMVEA [PPP2R2B] | 2.85 ± 0.15 | 2.94 ± 0.37 |  | 
6 | ASKKTAQPWVEVVLALRNMKNLLF [MFSD9] | 2.75 ± 0.73 | 2.57 ± 0.39 |  | 
7 | MSNKDRHIDSSCSSFIKTEPSSPA [ESRRG] | 4.33 ± 0.18 | 4.33 ± 0.17 |  | 
8 | VGRTVLDMLIREVVEKRLCMYEHG [RSPH3] | 2.89 ± 0.52 | 3.39 ± 0.14 |  | 
9 | ISQYEDDLPPPPADPVLDLPLPPP [APBB1IP] | 4.93 ± 0.18 | 4.913 ± 0.048 |  | 
10 | RSCAIVEDDGLQSAFTAAHELGHV [ADAMTS4] | 3.62 ± 0.43 | 3.55 ± 0.2 |  | 
11 | EVMESEEFMLLPANQLIDIISSDE [KLHL20] | 4.54 ± 0.23 | 4.64 ± 0.32 |  | 
12 | KENIEKDEDDVDQELANIDPTWIE [SRPK2] | 5.56 ± 0.28 | 5.53 ± 0.2 |  | 
13 | SETHAAGHSQEKTHSREKSSQESG [CHGB] | 5.67 ± 0.22 | 5.57 ± 0.16 |  | 
14 | TATDGGSPPLSTEAHFMLQVADIN [PCDHGA10] | 4.18 ± 0.089 | 4.19 ± 0.16 |  | 
15 | VGGEAVEVEEVENVQTEFPGEDEN [TRIM55] | 5.74 ± 0.2 | 5.61 ± 0.34 |  | 
16 | GGPAGQAGRGGAAGTAGVGETGSG [MYOZ1] | 5.42 ± 0.21 | 5.34 ± 0.32 |  | 
17 | MLGYKRHLALHAASSGDLTCGVCA [PLAGL1] | 2.53 ± 0.23 | 2.73 ± 0.4 |  | 
18 | NGTRVQEEPELVFTLGDCDVIQAL [FKBP8] | 3.72 ± 0.28 | 3.83 ± 0.17 |  | 
19 | SGLIEIQSYPLCIYLINQKWFGRK [SLC22A15] | 2.47 ± 0.59 | 2.19 ± 0.2 |  | 
20 | MPLSGTPAPNKKRKSSKLIMELTG [MYOZ1] | 3.63 ± 0.24 | 3.81 ± 0.22 |  | 
21 | GDRAGDASKDILLGPWDMVLAQG [SCARA5] |  |  | 2.76 ± 0.64 | 2.69 ± 0.54
22 | RAALICLTLVLVASVLLQAVLYPR [CD207] | 2.44 ± 0.55 | 2.59 ± 0.53 |  | 

Row | Sequence | protein stability index [1] | protein stability index [2] | protein stability index [3] | protein stability index [4]
23 | IGAAPFSGRRNWCSYVVTRTISCH [EMID1] | 2.23 ± 0.27 | 2.07 ± 0.23 |  | 
24 | LALDSGASLLHLAVEAGQEECAKW [RIPK4] | 3.73 ± 1.2 | 3.46 ± 0.4 |  | 
25 | SEHVLKKAHKYSELIILYEKKGLH [VPS39] | 2.08 ± 0.23 | 2.27 ± 0.34 |  | 
26 | SIRILDELVLPFQELQIDDNEYAY [HNF4A] | 3.46 ± 0.26 | 3.44 ± 0.26 |  | 
27 | ISPKARCLIRSLLRREPSERLTAP [TRIB1] | 2.22 ± 0.24 | 2.33 ± 0.39 |  | 
28 | HSYMGMRGFCAFLGSWLVPFAYLT [POMT2] | 2.96 ± 0.86 | 3.04 ± 0.62 |  | 
29 | QAEFTAMRDQYMRAGEGFIICYSI [RIT1] | 3.38 ± 0.48 | 3.04 ± 0.8 |  | 
30 | MQVHKETIDAVPNAIPGRTDIELE [ZNF207] | 4.97 ± 0.15 | 5.17 ± 0.18 |  | 
31 | LRPTSVDPALRRRRRGPRNKKRGW [NOP53] | 4.64 ± 0.56 | 4.29 ± 0.23 |  | 
32 | AACFDGRLDIVKYLVENNANISIA [FEM1B] | 2.38 ± 0.38 | 2.21 ± 0.38 |  | 
33 | PSGNNGSVNWRTGSFHGPGHISLR [DLC1] | 3.09 ± 0.18 | 3.01 ± 0.19 |  | 
34 | LVLQTSEGKALQQYPSERELRGI [TRIM9] |  |  | 3.01 ± 0.96 | 2.98 ± 0.54
35 | EFRDDRDLVMALSAGGHGGLLNDT [KCNA4] | 4.06 ± 0.35 | 3.91 ± 0.23 |  | 
36 | ITFPSLESCEEKNQLILTASADRT [WDR41] | 4.02 ± 0.29 | 4.1 ± 0.35 |  | 
37 | VLVHVQKWDGKSTTIKRKREDDKL [FABP4] | 2.85 ± 0.46 | 2.85 ± 0.4 |  | 
38 | RDPSLRPARTVLVGSLSWLRKQLQ | 2.75 ± 0.51 | 3.19 ± 0.48 |  | 
39 | DYVQLENQWETPPEDLQTDLAKLV [ZNF449] | 4.19 ± 0.3 | 4.31 ± 0.059 |  | 
40 | SGSDVLDNVAYARAFNTDHQTQLL [RAD51] | 3.66 ± 0.21 | 3.73 ± 0.12 |  | 
41 | TSETSHSPLYADPYTPPATSHRRV [PLEKHN1] | 4.39 ± 0.12 | 4.34 ± 0.08 |  | 
42 | EGHLDDGGYTPDLKMSYSRGLIPV [RBMY1A1] | 3.25 ± 0.14 | 3.15 ± 0.38 |  | 
43 | GPFRTLLQFLYTGQLDEKEKDLVG [RHOBTB1] | 2 ± 0.054 | 2.49 ± 0.3 |  | 
44 | PSHGEVGEHKDRIERQWGNLLGEG [ZSCAN9] | 4.47 ± 0.19 | 4.47 ± 0.36 |  | 

Row | Sequence | protein stability index [1] | protein stability index [2] | protein stability index [3] | protein stability index [4]
45 | RFIIIFEQIRFVMKAHSFVRENVP [SOAT1] | 2.51 ± 0.39 | 2.65 ± 0.56 |  | 
46 | KYSYTSTSDDNLLKNIELFDKLAL [KCTD13] | 2.63 ± 0.42 | 2.59 ± 0.26 |  | 
47 | ANGGAICAVTFFTILLSYGVILHS [OR4A15] | 2.79 ± 0.25 | 2.84 ± 0.31 |  | 
48 | TQQNRKLTDFYPVRRSSRKSKAEL [KMT5A] | 2.97 ± 0.89 | 3.76 ± 0.29 |  | 
49 | SDARVVKDMATGKSKGYGFVSFFN [TIA1] | 2.79 ± 0.35 | 2.77 ± 0.16 |  | 
50 | PNIQEAVEGAMHIQECVPEDLELK [CRYL1] | 5.49 ± 0.13 | 5.57 ± 0.19 |  | 
51 | RLWGIRKNRPAMNYDKLSRSIRQY [SPDEF] | 2.4 ± 0.25 | 2.4 ± 0.45 |  | 
52 | DKDVRLLVACCLADIFRIYAPEAP [PDS5B] | 3.08 ± 0.48 | 3.02 ± 0.08 |  | 
53 | LDAHYHVKISDFGLAKCNGLSHSH [RIPK4] | 2.25 ± 0.31 | 2.48 ± 0.15 |  | 
54 | SQSPSVSQLSVLSLSGVMLTDVSP [PRAME] | 3 ± 0.49 | 3 ± 0.33 |  | 
55 | AEDHLDGCCKRRYLQKIEEFAEMV [KCNG1] | 3.06 ± 0.14 | 2.96 ± 0.1 |  | 
56 | EDITYVLKPTFTKQQIANLDKQAK [USP39] | 4.01 ± 0.097 | 4.17 ± 0.13 |  | 
57 | AFKAAALIQRWYRRYVARLEMRRR [PPEF2] | 3.55 ± 0.57 | 4.15 ± 0.59 |  | 
58 | LKDTYASLGKTNVKDDELDAMLKE [MYL5] | 5.28 ± 0.21 | 5.35 ± 0.2 |  | 
59 | MYILSPAVLRRIQLQPTSIEKEVF [GMPPB] | 2.29 ± 0.42 | 2.24 ± 0.41 |  | 
60 | WVNDPQRMDKRTLALLVLAHSSDV [GOLPH3L] | 2.19 ± 0.3 | 2.18 ± 0.2 |  | 
61 | TKPKTTAIQGISEKEKAEIEAKEA [DLC1] | 5.56 ± 0.25 | 5.35 ± 0.35 |  | 
62 | YRAALRSCSLVLEHQPDNIKALFR [FKBP8] | 2.17 ± 0.25 | 2.27 ± 0.037 |  | 
63 | GSNPPYLPFRDASFGNCTYNLTIL [CDC14A] | 2.6 ± 0.69 | 2.8 ± 0.73 |  | 
64 | LLAEKEEKLQKEQKELQDVGQSLR [SASS6] | 5.45 ± 0.23 | 5.35 ± 0.28 |  | 
65 | AGWTLATLGEQGLPHQSHRQRSSL [SCNN1D] | 3.62 ± 0.21 | 3.75 ± 0.21 |  | 
